Measurements reported in paper PMC3627603 (Nucleic Acids Research, 2013).

T1: H6-Mcm10 full length (FL), recombinant (human, UniProt Q7L590-2 1-874)
T1 sequence (looked up): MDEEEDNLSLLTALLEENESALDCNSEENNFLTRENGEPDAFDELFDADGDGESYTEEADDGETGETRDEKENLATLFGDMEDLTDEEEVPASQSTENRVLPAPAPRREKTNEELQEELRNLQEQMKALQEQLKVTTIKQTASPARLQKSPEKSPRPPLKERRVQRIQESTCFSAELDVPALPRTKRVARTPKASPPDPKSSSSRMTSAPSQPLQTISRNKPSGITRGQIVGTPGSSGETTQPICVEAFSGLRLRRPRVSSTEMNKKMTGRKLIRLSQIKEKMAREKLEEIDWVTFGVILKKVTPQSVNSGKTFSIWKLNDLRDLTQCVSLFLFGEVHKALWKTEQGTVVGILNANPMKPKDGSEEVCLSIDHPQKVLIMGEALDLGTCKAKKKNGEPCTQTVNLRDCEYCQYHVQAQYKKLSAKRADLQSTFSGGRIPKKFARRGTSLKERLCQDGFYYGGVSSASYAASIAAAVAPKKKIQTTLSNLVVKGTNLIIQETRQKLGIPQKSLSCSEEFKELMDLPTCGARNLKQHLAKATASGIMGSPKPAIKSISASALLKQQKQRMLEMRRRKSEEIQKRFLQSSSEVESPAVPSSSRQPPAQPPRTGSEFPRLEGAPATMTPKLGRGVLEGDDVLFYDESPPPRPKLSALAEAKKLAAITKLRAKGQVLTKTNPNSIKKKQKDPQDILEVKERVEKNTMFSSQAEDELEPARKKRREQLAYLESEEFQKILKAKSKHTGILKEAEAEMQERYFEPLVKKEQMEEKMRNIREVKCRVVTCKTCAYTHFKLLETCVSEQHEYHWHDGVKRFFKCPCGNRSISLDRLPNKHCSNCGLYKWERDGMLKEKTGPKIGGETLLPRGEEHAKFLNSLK

B1: His-tagged Mcm10 C-terminal domain (CTD, aa 630-874) (domain or fragment, human, UniProt Q7L590-2 630-874, looked up)
chain: GVLEGDDVLFYDESPPPRPKLSALAEAKKLAAITKLRAKGQVLTKTNPNSIKKKQKDPQDILEVKERVEKNTMFSSQAEDELEPARKKRREQLAYLESEEFQKILKAKSKHTGILKEAEAEMQERYFEPLVKKEQMEEKMRNIREVKCRVVTCKTCAYTHFKLLETCVSEQHEYHWHDGVKRFFKCPCGNRSISLDRLPNKHCSNCGLYKWERDGMLKEKTGPKIGGETLLPRGEEHAKFLNSLK
B2: GST-SIRT1 (enzyme, human, UniProt Q96EB6 1-747, looked up)
chain: MADEAALALQPGGSPSAAGADREAASSPAGEPLRKRPRRDGPGLERSPGEPGGAAPEREVPAAARGCPGAAAAALWREAEAEAAAAGGEQEAQATAAAGEGDNGPGLQGPSREPPLADNLYDEDDDDEGEEEEEAAAAAIGYRDNLLFGDEIITNGFHSCESDEEDRASHASSSDWTPRPRIGPYTFVQQHLMIGTDPRTILKDLLPETIPPPELDDMTLWQIVINILSEPPKRKKRKDINTIEDAVKLLQECKKIIVLTGAGVSVSCGIPDFRSRDGIYARLAVDFPDLPDPQAMFDIEYFRKDPRPFFKFAKEIYPGQFQPSLCHKFIALSDKEGKLLRNYTQNIDTLEQVAGIQRIIQCHGSFATASCLICKYKVDCEAVRGDIFNQVVPRCPRCPADEPLAIMKPEIVFFGENLPEQFHRAMKYDKDEVDLLIVIGSSLKVRPVALIPSSIPHEVPQILINREPLPHLHFDVELLGDCDVIINELCHRLGGEYAKLCCNPVKLSEITEKPPRTQKELAYLSELPPTPLHVSEDSSSPERTSPPDSSVIVTLLDQAAKSNDDLDVSESKGCMEEKPQEVQTSRNVESIAEQMENPDLKNVGSSTGEKNERTSVAGTVRKCWPNRVAKEQISRRLDGNQYLFLPPNRYIFHGAEVYSDSEDDVLSSSSCGSNSDSGTCQSPSLEEPMEDESEIEEFYNGLEDEPDVPERAGGAGFGTDGDDQEAINEAISVKQEVTDMNYPSNKS

What was measured:
GST-SIRT1 = target: B2; test: pull-down
[1] = target: T1, H6-Mcm10 full length (FL), recombinant; test: pull-down

| Binder | binding result (GST-SIRT1) | binding result [1] |
| --- | --- | --- |
| B1 | binds |  |
| B2 |  | binds |
